# Assay: Systemic delivery of calcitonin as model peptide following dosing with the Spiros system, compared to subcutaneous injection
# Type: in vivo
# Conditions: calcitonin/lactose blend, estimated
# Excerpt: 5. Using calcitonin as a model peptide for systemic delivery, the bioactivity following dosing with the Spiros system has been estimated to be greater than 20% compared to a subcutaneous injection.
substance,measurement,value
calcitonin,bioactivity following dosing with the Spiros system compared to a subcutaneous injection (systemic availability),greater than 20%
